Assays:
AfAgo [1] = target: T1, AfAgo (Archaeoglobus fulgidus DSM 4304, UniProt O28951 1-427); test: X-ray crystallography; Mg2+; EMSA: 40 mM Tris-acetate pH 8.4 (25 C), 1 mM EDTA, 100 mM K-acetate, 0.1 mg/ml BSA, 1 mM DTT, 10% glycerol; 5 nM NA (1 nM 32P + 4 nM cold); 10 min at 25 C; details: protein: recombinant; tags: N-terminal His (HisTrap; construct name NHis-Af1318); blunt, self-complementary, 2 strand copies
T1 sequence: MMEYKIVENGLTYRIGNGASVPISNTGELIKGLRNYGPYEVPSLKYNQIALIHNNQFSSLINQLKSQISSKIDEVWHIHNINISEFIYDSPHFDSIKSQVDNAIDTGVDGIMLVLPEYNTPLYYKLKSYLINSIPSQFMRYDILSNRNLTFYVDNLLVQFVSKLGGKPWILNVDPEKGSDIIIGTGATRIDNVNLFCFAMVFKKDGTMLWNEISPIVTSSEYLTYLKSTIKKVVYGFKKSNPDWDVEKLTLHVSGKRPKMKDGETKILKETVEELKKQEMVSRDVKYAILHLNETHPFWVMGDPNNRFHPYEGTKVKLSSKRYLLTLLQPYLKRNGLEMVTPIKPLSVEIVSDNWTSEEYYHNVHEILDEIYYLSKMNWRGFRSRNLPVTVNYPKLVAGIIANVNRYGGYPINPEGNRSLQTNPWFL

AfAgo [2] = target: T1, AfAgo; test: EMSA; pre-formed duplex; EMSA: 40 mM Tris-acetate pH 8.4 (25 C), 1 mM EDTA, 100 mM K-acetate, 0.1 mg/ml BSA, 1 mM DTT, 10% glycerol; 5 nM NA (1 nM 32P + 4 nM cold); 10 min at 25 C; details: protein: recombinant; tags: N-terminal His (HisTrap; construct name NHis-Af1318); label: 5'-32P; blunt
AfAgo [3] = target: T1, AfAgo; test: X-ray crystallography; 5 mM Mg2+ in complex preparation; EMSA: 40 mM Tris-acetate pH 8.4 (25 C), 1 mM EDTA, 100 mM K-acetate, 0.1 mg/ml BSA, 1 mM DTT, 10% glycerol; 5 nM NA (1 nM 32P + 4 nM cold); 10 min at 25 C; details: protein: recombinant; tags: N-terminal His (HisTrap; construct name NHis-Af1318); blunt, self-complementary, 2 strand copies
AfAgo [4] = target: T1, AfAgo; test: EMSA; EMSA: 40 mM Tris-acetate pH 8.4 (25 C), 1 mM EDTA, 100 mM K-acetate, 0.1 mg/ml BSA, 1 mM DTT, 10% glycerol; 5 nM NA (1 nM 32P + 4 nM cold); 10 min at 25 C; details: protein: recombinant; tags: N-terminal His (HisTrap; construct name NHis-Af1318); label: 5'-32P
[5] = target: the molecule itself; test: crystal structure; AfAgo-DNA oligoduplex complexes, 90-120 uM (as monomer), crystals grown at 4-8 °C; P1 crystals (5'P-ATC DNA) hold two DNA-bound subunits per asymmetric unit; in the P22(1)2(1) crystals (5'P-ATT DNA) the dimer is formed by a crystallographic symmetry operator
AfAgo [6] = target: T1, AfAgo; test: EMSA; AfAgo pre-loaded with gRNA (1:2), target titrated; no heparin; EMSA: 40 mM Tris-acetate pH 8.4 (25 C), 1 mM EDTA, 100 mM K-acetate, 0.1 mg/ml BSA, 1 mM DTT, 10% glycerol; 5 nM NA (1 nM 32P + 4 nM cold); 10 min at 25 C; details: protein: recombinant; tags: N-terminal His (HisTrap; construct name NHis-Af1318); label: 5'-32P on target; guide nt 1-8 complementary to target 3' end; rest largely unpaired

B1: MZ-1288 5'-ATT oligoduplex (dsDNA)
DNA 1: ATTGTGGCCACAAT
DNA 2: ATTGTGGCCACAAT
modifications: 5'-phosphate
- binding result (AfAgo [1]): binds

B2: MZ-1480/MZ-1481 dsRNA (dsRNA)
RNA 1: AUUGUACACGGCCGAAU
RNA 2: AUUCGGCCGUGUACAAU
modifications: 5'-phosphate
- Kd (AfAgo [2]): 15 ± 0.9 nM

B3: MZ-1289 5'-ATT oligoduplex (dsDNA)
DNA 1: ATTGTACGTACAAT
DNA 2: ATTGTACGTACAAT
modifications: 5'-phosphate
- binding result (AfAgo [3]): binds

Binder: ATTGTACACGGCCGAAT (ssDNA, 5'-phosphate) [MZ-1447 ATT ssDNA]
- Kd (AfAgo [4]): 236 ± 35 nM

B4: Archaeoglobus fulgidus Argonaute protein (AfAgo) (natural protein, Archaeoglobus fulgidus DSM 4304)
chain: MMEYKIVENGLTYRIGNGASVPISNTGELIKGLRNYGPYEVPSLKYNQIALIHNNQFSSLINQLKSQISSKIDEVWHIHNINISEFIYDSPHFDSIKSQVDNAIDTGVDGIMLVLPEYNTPLYYKLKSYLINSIPSQFMRYDILSNRNLTFYVDNLLVQFVSKLGGKPWILNVDPEKGSDIIIGTGATRIDNVNLFCFAMVFKKDGTMLWNEISPIVTSSEYLTYLKSTIKKVVYGFKKSNPDWDVEKLTLHVSGKRPKMKDGETKILKETVEELKKQEMVSRDVKYAILHLNETHPFWVMGDPNNRFHPYEGTKVKLSSKRYLLTLLQPYLKRNGLEMVTPIKPLSVEIVSDNWTSEEYYHNVHEILDEIYYLSKMNWRGFRSRNLPVTVNYPKLVAGIIANVNRYGGYPINPEGNRSLQTNPWFL
notes: AfAgo, hypothetical protein from Archaeoglobus fulgidus DSM 4304, GenBank NP_070147.1, cloned in pETDuet-1; also called AfPIWI; Af1318; source: E. coli, purified (Ni2+ HiTrap chelating, RNase A/T1 treatment, HiTrap Heparin, Superdex 200)
- binding result [5]: binds

Binder: CUUGUACACGGCCGAAG (ssRNA, 5'-phosphate) [MZ-1708 CUU ssRNA]
- Kd (AfAgo [4]): 28 ± 2.7 nM

Binder: GUUGUACACGGCCGAAC (ssRNA, 5'-phosphate) [MZ-1698 GUU ssRNA]
- Kd (AfAgo [4]): 42 ± 2.1 nM

B5: MZ-952 5'-ATC oligoduplex (dsDNA)
DNA 1: ATCGTGGCCACGAT
DNA 2: ATCGTGGCCACGAT
modifications: 5'-phosphate
- binding result (AfAgo [3]): binds

Binder: AGUGUACACGGCCGACU (ssRNA, 5'-phosphate) [MZ-1707 AGU ssRNA]
- Kd (AfAgo [4]): 84 ± 2.9 nM

B6: MZ-1480/MZ-1455 RNA/DNA heteroduplex (DNA:RNA)
RNA: AUUGUACACGGCCGAAU
DNA: ATTCGGCCGTGTACAAT
modifications: 5'-phosphate
- Kd (AfAgo [2]): 6.1 ± 0.04 nM

B7: MZ-1447/MZ-1455 dsDNA (dsDNA)
DNA 1: ATTGTACACGGCCGAAT
DNA 2: ATTCGGCCGTGTACAAT
modifications: 5'-phosphate
- Kd (AfAgo [2]): 37 ± 17 nM

Binder: AUCGUACACGGCCGGAU (ssRNA, 5'-phosphate) [MZ-1706 AUC ssRNA]
- Kd (AfAgo [4]): 16 ± 2.1 nM

Binder: UUUGUACACGGCCGAAA (ssRNA, 5'-phosphate) [MZ-1699 UUU ssRNA]
- Kd (AfAgo [4]): 15 ± 2.8 nM

B8: gRNA MZ-1480 + target RNA MZ-1556 (8 nt) (dsRNA)
RNA 1: AUUGUACACGGCCGAAU
RNA 2: CGGAAUAUAUGUACAAU
modifications: 5'-phosphate
- Kd (AfAgo [6]): 33 ± 4.2 nM

B9: gRNA MZ-1480 + target DNA MZ-1560 (8 nt) (DNA:RNA)
RNA: AUUGUACACGGCCGAAU
DNA: CGGAATATATGTACAAT
modifications: 5'-phosphate
- Kd (AfAgo [6]): 7.5 ± 0.4 nM

Binder: AUUGUACACGGCCGAAU (ssRNA, 5'-phosphate) [MZ-1480 5'P-AUU ssRNA]
- Kd (AfAgo [4]): 3.8 ± 0.1 nM
